In patent US20220185898A1 (Alector, published 2022) one finds Kd, binding result and MFI data, which are given here for 4 molecules.

In experiment [1] the target is T1, recombinant human Sortilin, His-tagged (R&D Systems) (human, UniProt Q99523 78-755).
T1 construct: bought; whole entry named; also called His-captured SORT1
In words: Biacore SPR, His-captured Sortilin. For orientation: SPR reads the build-up and loss of mass on a sensor chip optically.

Experiment [2] deals with T2, mouse Sortilin expressed on 293 / HEK293T cells (mouse, UniProt Q6PHU5 74-825).
T2 construct: full-length recombinant mouse Sortilin; also called mSort; msSort
Description: FACS, time course of binding and endocytosis of human PGRN-DyLight650 by HEK293T cells expressing mouse Sortilin. Background: In flow cytometry, cells or beads pass a laser one at a time.

The target of experiment [3] is T1, recombinant human Sortilin, His-tagged …. In words: ELISA, biotinylated PGRN on immobilized Sortilin. On the technique in general: In an ELISA, binding on a coated surface is turned into a signal by an enzyme label.
Experiment [4] deals with T3, recombinant mouse Sortilin (R&D Systems) (mouse, UniProt Q6PHU5 74-754, limits assumed).
T3 construct: bought; also called mouse SORT1
Description: ELISA, biotinylated PGRN on immobilized Sortilin.

In experiment [5] the target is T4, biotinylated human Sortilin monomer (human, UniProt Q99523 78-755, limits assumed, biotinylated (Sulfo-NHS-biotin)).
T4 construct: monomer cut from the Fc fusion with IdeS; used unbiotinylated in solution in some formats; also called Bt-hSort; b-H Sort
In words: ForteBio, avidity, biotinylated human Sortilin on sensor.

For experiment [6], the target named is T5, human Sortilin expressed on 293 / HEK293T cells (human, UniProt Q99523 78-830).
T5 construct: full-length recombinant human Sortilin; also called hSort; SORT1
Description: FACS, 293 cells.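 Further: antibodies at 10 µg/ml bound to cells for 1 h on ice, detected with PE-labelled anti-human secondary antibody by flow cytometry, reported as mean fluorescence intensity.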
Description: (§1) Cells were harvested, plated at 10⁵/ml in a 96 well plate, washed, and incubated in 100 μl PBS containing 10 μg/ml Mab and 2% FBS for 1 hour in ice. Cells were then washed twice and incubated in 100 μl PBS+2% FBS containing 5 μg/ml PE-conjugated anti-human secondary antibody for 30 minutes in ice. Cells were washed twice in cold PBS and data was acquired on a BD FACS Canto. Data analysis and calculation of MFI values was performed with FlowJo (TreeStar) software version 10.0.7.

The target in experiment [7] is T2, mouse Sortilin expressed on 293 / …. Description: FACS, 293 cells.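 Further: antibodies at 10 µg/ml bound to cells for 1 h on ice, detected with PE-labelled anti-human secondary antibody by flow cytometry, reported as mean fluorescence intensity.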
Description: as §1
For experiment [8], the target named is T6, human Sortilin Fc fusion protein (human, UniProt Q99523 78-755).
T6 construct: whole entry named; also called hSort-Fc
Description: ForteBio, avid.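 Further: whole IgG captured on AHQ sensors, then contacted with Sortilin Fc fusion antigen at 100 nM, followed by an off-rate phase in buffer.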
Description: (§2) The affinity for the Sortilin antibodies was determined by measuring their KD by ForteBio. […] Briefly, ForteBio affinity measurements were performed by loading IgGs on-line onto AHQ sensors. Sensors were equilibrated off-line in assay buffer for 30 min and then monitored on-line for 60 seconds for baseline establishment. For avid binding measurement, sensors with loaded IgGs were exposed to 100 nM antigen (human or mouse Sortilin Fc fusion) for 3, afterwards they were transferred to assay buffer for 3 min for off-rate measurement.
(§3) The binding affinity of each anti-Sortilin antibody was determined by measuring their KD by ForteBio or MSD-SET at room temperature. […] Briefly, ForteBio affinity measurements were performed by loading IgGs on-line onto AHQ sensors. Sensors were equilibrated off-line in assay buffer for 30 min and then monitored on-line for 60 seconds for baseline establishment. Sensors with loaded IgGs were exposed to 100 nM antigen for 5 minutes, then transferred to assay buffer for 5 min for off-rate measurement. Kinetics were analyzed using the 1:1 binding model.

The target in experiment [9] is T7, mouse Sortilin Fc fusion protein (mouse; human, UniProt Q6PHU5 74-754).
T7 construct: whole entry named; also called mSort-Fc
Description: ForteBio, avid.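 Further: whole IgG captured on AHQ sensors, then contacted with Sortilin Fc fusion antigen at 100 nM, followed by an off-rate phase in buffer.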
Description: as §2, §3

In experiment [10] the target is T4, biotinylated human Sortilin monomer. Description: ForteBio, Fab.
Description: The affinity of the anti-Sortilin antibodies was determined by measuring their KD by ForteBio and MSD. […] Briefly, ForteBio affinity measurements were performed by loading immunoglobulins (IgGs) on-line onto AHQ sensors. Sensors were equilibrated off-line in assay buffer for 30 min and then monitored on-line for 60 seconds for baseline establishment. For avid binding measurement, sensors with loaded IgGs were exposed to 100 nM antigen (human or mouse Sortilin Fc fusion) for 3 min, afterwards they were transferred to assay buffer for 3 min for off-rate measurement. […] Monovalent binding measurements were obtained by loading human or mouse Sortilin Fc fusion antigens to AHQ sensor and followed by exposure to −100 nM Sortilin antibody Fab. […] Kinetics data were fit using a 1:1 binding model in the data analysis software provided by ForteBio.
For experiment [11], the target named is T8, biotinylated mouse Sortilin monomer (mouse, UniProt Q6PHU5 74-754, limits assumed, biotinylated).
T8 construct: also called Bt-msSort
In words: MSD-SET, Fab.
Description: (§4) Antibodies (20 nM in PBS) were coated onto standard bind MSD-ECL plates overnight at 4° C. or at room temperature for 30 min. Plates were then blocked with 1% BSA for 30 min with shaking at 700 rpm, followed by three washes with wash buffer (PB SF+0.05% Tween 20). SET samples were applied and incubated on the plates for 150 s with shaking at 700 rpm followed by one wash. Antigen captured on a plate was detected with 250 ng/ml sulfotag-labeled streptavidin in PBSF by incubation on the plate for 3 min. The plates were washed three times with wash buffer and then read on the MSD Sector Imager 2400 instrument using 1× Read Buffer T with surfactant. The percent free antigen was plotted as a function of titrated antibody in Prism and fit to a quadratic equation to extract the KD. To improve throughput, liquid handling robots were used throughout MSD-SET experiments, including SET sample preparation.

For experiment [12], the target named is T4, biotinylated human Sortilin monomer. In words: MSD-SET, Fab; MSD, Fab, monovalent biotinylated human Sortilin.
Description: as §4

B1: recombinant human Progranulin (Adipogen) (ligand, UniProt P28799 18-593, looked up)
chain: TRCPDGQFCPVACCLDPGGASYSCCRPLLDKWPTTLSRHLGGPCQVDAHCSAGHSCIFTVSGTSSCCPFPEAVACGDGHHCCPRGFHCSADGRSCFQRSGNNSVGAIQCPDSQFECPDFSTCCVMVDGSWGCCPMPQASCCEDRVHCCPHGAFCDLVHTRCITPTGTHPLAKKLPAQRTNRAVALSSSVMCPDARSRCPDGSTCCELPSGKYGCCPMPNATCCSDHLHCCPQDTVCDLIQSKCLSKENATTDLLTKLPAHTVGDVKCDMEVSCPDGYTCCRLQSGAWGCCPFTQAVCCEDHIHCCPAGFTCDTQKGTCEQGPHQVPWMEKAPAHLSLPDPQALKRDVPCDNVSSCPSSDTCCQLTSGEWGCCPIPEAVCCSDHQHCCPQGYTCVAEGQCQRGSEIVAGLEKMPARRASLSHPRDIGCDQHTSCPVGQTCCPSLGGSWACCQLPHAVCCEDRQHCCPAGYTCNVKARSCEKEVVSAQPATFLARSPHVGVKDVECGEGHFCHDNQTCCRDNRQGWACCPYRQGVCCADRRHCCPAGFRCAARGTKCLRREAPRWDAPLRDPALRQLL
modifications: biotinylated or DyLight650-labelled in some assays
notes: also called hPGRN; PGRN
Turning to B1, the Kd was determined as 14.3 nM in experiment [1] and 14 nM in experiment [3]. In addition, the binding result in [2] was “binds”.

B2: recombinant mouse Progranulin (Adipogen) (ligand, UniProt P28798 18-589, looked up)
chain: TQCPDGQFCPVACCLDQGGANYSCCNPLLDTWPRITSHHLDGSCQTHGHCPAGYSCLLTVSGTSSCCPFSKGVSCGDGYHCCPQGFHCSADGKSCFQMSDNPLGAVQCPGSQFECPDSATCCIMVDGSWGCCPMPQASCCEDRVHCCPHGASCDLVHTRCVSPTGTHTLLKKFPAQKTNRAVSLPFSVVCPDAKTQCPDDSTCCELPTGKYGCCPMPNAICCSDHLHCCPQDTVCDLIQSKCLSKNYTTDLLTKLPGYPVKEVKCDMEVSCPEGYTCCRLNTGAWGCCPFAKAVCCEDHIHCCPAGFQCHTEKGTCEMGILQVPWMKKVIAPLRLPDPQILKSDTPCDDFTRCPTNNTCCKLNSGDWGCCPIPEAVCCSDNQHCCPQGFTCLAQGYCQKGDTMVAGLEKIPARQTTPLQIGDIGCDQHTSCPVGQTCCPSLKGSWACCQLPHAVCCEDRQHCCPAGYTCNVKARTCEKDVDFIQPPVLLTLGPKVGNVECGEGHFCHDNQTCCKDSAGVWACCPYLKGVCCRDGRHCCPGGFHCSARGTKCLRKKIPRWDMFLRDPVPRPLL
modifications: biotinylated
notes: also called mPGRN; Bio-mPGRN
As to B2, the Kd in experiment [4] turned out to be 40 nM.

B3: S-14 (antibody, V domains shown)
VH: QVQLVQSGAEVKKPGASVKVSCKASGYTFTSYYMSWVRQAPGQGLEWMGIINPSGGSTSYAQKFQGRVTMTRDTSTSTVYMELSSLRSEDTAVYYCARDPSGIAAAGPASRYYYGMDVWGQGTTVTVSS
VL: DIQMTQSPSSLSASVGDRVTITCRASQSISSYLNWYQQKPGKAPKLLIYGASSLQSGVPSRFSGSGSGTDFTLTISSLQPEDFATYYCQQHYVGPFTFGGGTKVEIK
notes: IgG
With B3, the results for the Kd in [5], in [8] and in experiment [9] were 0.8 nM, 5.74 nM and 2.74 nM, respectively. Besides, the figures for the MFI in [6] and in [7] were 8010 and 16500, respectively.

B4: S-2-1 Fab (Fab, V domains shown)
VH: QVQLVQSGAEVKKPGASVKVSCKASGYTFGAYYMHWVRQAPGQGLEWMGWINPNSGFTRYAQKFQGRVTMTRDTSISTAYMELSRLRSDDTAVYYCARGKRSSGWYEGYGMDVWGQGTTVTVSS
VL: DIQMTQSPSSLSASVGDRVTITCRASQSISSYLNWYQQKPGKAPKLLIYAASSLQSGVPSRFSGSGSGTDFTLTISSLQPEDFATYYCQQSDVSPITFGGGTKVEIK
notes: Fab by papain digestion of the IgG
Take B4: the Kd in [10] was 0.614 nM; in experiment [11], 0.73 nM; in experiment [12], 0.029 nM.
